Measured values: PMC9599917, “Reshaping the Binding Pocket of the Neurotransmitter:Solute Symporter (NSS) Family Transporter SLC6A14 (ATB^0,+) Selectively Reduces Access for Cationic Amino Acids and Derivatives” (Biomolecules, 2022)

Experiments:
Type in all cases: cell-based, Homo sapiens
[1] = substrate: N[C@@H](CO)C(=O)O; assay: two-electrode voltage clamp in oocytes (Km); radiolabelled uptake; settings: Na+ and Cl-
[2] = substrate: N=C(N)NCCC[C@H](N)C(=O)O; assay: two-electrode voltage clamp in oocytes (Km); competition with [3H]serine uptake; settings: Na+ and Cl- substrate binding pocket, competes with serine; lost in V128F
[3] = substrate: N[C@@H](CO)C(=O)O; assay: two-electrode voltage clamp in oocytes (Km); radiolabelled uptake; settings: Na+ and Cl-; remark: listed apart in the source
From the text: two-electrode voltage clamp in oocytes (Km); radiolabelled uptake on SLC6A14 (ATB0,+) | In SLC6A14-V128I, the affinity for serine increased by five-fold

[4] = substrate: N=C(N)NCCC[C@H](N)C(=O)O; assay: two-electrode voltage clamp in oocytes (Km); settings: Na+ and Cl-

Row | Protein | Km [1] [µM] | Km [2] [µM] | Km [3] [µM] | Km [4] [µM]
1 | SLC6A14 (ATB0,+) (Homo sapiens) (protein, human SLC6A14 expressed in Xenopus laevis oocytes) MDKLKCPSFFKCREKEKVSASSENFHVGENDENQDRGNWSKKSDYLLSMIGYAVGLGNVWRFPYLTYSNGGGAFLIPYAIMLALAGLPLFFLECSLGQFASLGPVSVWRILPLFQGVGITMVLISIFVTIYYNVIIAYSLYYMFASFQSELPWKNCSSWSDKNCSRSPIVTHCNVSTVNKGIQEIIQMNKSWVDINNFTCINGSEIYQPGQLPSEQYWNKVALQRSSGMNETGVIVWYLALCLLLAWLIVGAALFKGIKSSGKVVYFTALFPYVVLLILLVRGATLEGASKGISYYIGAQSNFTKLKEAEVWKDAATQIFYSLSVAWGGLVALSSYNKFKNNCFSDAIVVCLTNCLTSVFAGFAIFSILGHMAHISGKEVSQVVKSGFDLAFIAYPEALAQLPGGPFWSILFFFMLLTLGLDSQFASIETITTTIQDLFPKVMKKMRVPITLGCCLVLFLLGLVCVTQAGIYWVHLIDHFCAGWGILIAAILELVGIIWIYGGNRFIEDTEMMIGAKRWIFWLWWRACWFVITPILLIAIFIWSLVQFHRPNYGAIPYPDWGVALGWCMIVFCIIWIPIMAIIKIIQAKGNIFQRLISCCRPASNWGPYLEQHRGERYKDMVDPKKEADHEIPTVSGSRKPE | 106 ± 5 | 91 ± 11 |  | 
2 | SLC6A14 (ATB0,+) (Homo sapiens; V128F) (protein, human SLC6A14-V128F expressed in Xenopus laevis oocytes) MDKLKCPSFFKCREKEKVSASSENFHVGENDENQDRGNWSKKSDYLLSMIGYAVGLGNVWRFPYLTYSNGGGAFLIPYAIMLALAGLPLFFLECSLGQFASLGPVSVWRILPLFQGVGITMVLISIFFTIYYNVIIAYSLYYMFASFQSELPWKNCSSWSDKNCSRSPIVTHCNVSTVNKGIQEIIQMNKSWVDINNFTCINGSEIYQPGQLPSEQYWNKVALQRSSGMNETGVIVWYLALCLLLAWLIVGAALFKGIKSSGKVVYFTALFPYVVLLILLVRGATLEGASKGISYYIGAQSNFTKLKEAEVWKDAATQIFYSLSVAWGGLVALSSYNKFKNNCFSDAIVVCLTNCLTSVFAGFAIFSILGHMAHISGKEVSQVVKSGFDLAFIAYPEALAQLPGGPFWSILFFFMLLTLGLDSQFASIETITTTIQDLFPKVMKKMRVPITLGCCLVLFLLGLVCVTQAGIYWVHLIDHFCAGWGILIAAILELVGIIWIYGGNRFIEDTEMMIGAKRWIFWLWWRACWFVITPILLIAIFIWSLVQFHRPNYGAIPYPDWGVALGWCMIVFCIIWIPIMAIIKIIQAKGNIFQRLISCCRPASNWGPYLEQHRGERYKDMVDPKKEADHEIPTVSGSRKPE | 142 ± 11 |  |  | 
3 | SLC6A14 (ATB0,+) (Homo sapiens; V128I) (protein, human SLC6A14-V128I expressed in Xenopus laevis oocytes) MDKLKCPSFFKCREKEKVSASSENFHVGENDENQDRGNWSKKSDYLLSMIGYAVGLGNVWRFPYLTYSNGGGAFLIPYAIMLALAGLPLFFLECSLGQFASLGPVSVWRILPLFQGVGITMVLISIFITIYYNVIIAYSLYYMFASFQSELPWKNCSSWSDKNCSRSPIVTHCNVSTVNKGIQEIIQMNKSWVDINNFTCINGSEIYQPGQLPSEQYWNKVALQRSSGMNETGVIVWYLALCLLLAWLIVGAALFKGIKSSGKVVYFTALFPYVVLLILLVRGATLEGASKGISYYIGAQSNFTKLKEAEVWKDAATQIFYSLSVAWGGLVALSSYNKFKNNCFSDAIVVCLTNCLTSVFAGFAIFSILGHMAHISGKEVSQVVKSGFDLAFIAYPEALAQLPGGPFWSILFFFMLLTLGLDSQFASIETITTTIQDLFPKVMKKMRVPITLGCCLVLFLLGLVCVTQAGIYWVHLIDHFCAGWGILIAAILELVGIIWIYGGNRFIEDTEMMIGAKRWIFWLWWRACWFVITPILLIAIFIWSLVQFHRPNYGAIPYPDWGVALGWCMIVFCIIWIPIMAIIKIIQAKGNIFQRLISCCRPASNWGPYLEQHRGERYKDMVDPKKEADHEIPTVSGSRKPE |  |  | 20 ± 3 | 60 ± 8
